Results on 30 molecules are retold here after patent publication US20260151519A1 (AKTIS ONCOLOGY, published 2026).

For orientation: Kd means a measure of binding affinity in units of concentration. High values mean weaker binding, low ones tighter binding.

The target in this test is T1, Human Nectin-4 (human, UniProt Q96NY8 32-349, limits assumed).
T1 construct: Protein immobilised on the SPR chip; also called target protein
T1 sequence: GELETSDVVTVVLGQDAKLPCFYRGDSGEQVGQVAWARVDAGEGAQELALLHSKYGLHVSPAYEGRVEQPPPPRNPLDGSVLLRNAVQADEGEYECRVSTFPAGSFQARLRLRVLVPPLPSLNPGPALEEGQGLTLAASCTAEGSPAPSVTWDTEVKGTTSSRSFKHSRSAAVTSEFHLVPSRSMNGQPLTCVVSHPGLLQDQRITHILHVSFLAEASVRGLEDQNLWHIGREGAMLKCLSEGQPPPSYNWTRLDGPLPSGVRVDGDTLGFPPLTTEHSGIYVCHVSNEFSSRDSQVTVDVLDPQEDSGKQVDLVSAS
The experiment in a line: Table 2B (DELFIA or SPR).

Bridges are numbered along the chain shown (N, C = ends). Primed or numbered codes have the meaning given here. Where no end group is shown, it is not given here. [ ]: non-standard residue; d: D form. The star is where a group is joined. DOTA = O=C(O)CN1CCN(CC(=O)O)CCN(CC(=O)*)CCN(CC(=O)O)CC1; Biotin = O=C1N[C@H]2[C@H](CS[C@H]2CCCCC(=O)*)N1; hydroxy‑norleucine = hydroxy-norleucine residue; Cit = NC(=O)NCCC[C@H](N)C(=O)O; PEG4″ = 4(ethylene glycol); PEG12′ = not defined here

B1: C49 (designed binder)
chain: Ac-CEYDEQFFTGLKRLRGGDICYYIKKKFKKVPDLCIEEILDKLGC-OH
modifications: disulfide 1-34, 20-44
The molecule B1 had a Kd of 1.93 nM.

B2: C68 (designed binder)
chain: Ac-CEYDEEFFLGLKRLRGGDICYYIKKKFKKVPELCIEEILEKLGC-OH
modifications: disulfide 1-34, 20-44
The molecule B2 gave a Kd of 2.66 nM.

B3: C56 (designed binder)
chain: Ac-CEYDEEFFTLLKRLRGGDICYYIKKKFKKVPKLCIEEILDKLGC
modifications: disulfide 1-34, 20-44
Molecule B3 showed a Kd of 3.88 nM.

B4: C81 (designed binder)
chain: Ac-CEYDEEFFKALKRLRGGDICYYIKKKFKKVPKLCIEEILDKLGC-OH
modifications: disulfide 1-34, 20-44
In the case of B4, the equilibrium dissociation constant (Kd) worked out at 0.43 nM.

B5: C51 (designed binder)
chain: {DOTA-PEG12′}-CEYDEEFFAGLKRLRGGDICYYIKKKFDKVPDLCIEEILDKLGC-OH
modifications: disulfide 1-34, 20-44
B5 came in with a dissociation constant Kd of 8.37 nM.

B6: C79 (designed binder)
chain: Ac-CEYDEEFFTALKRLRGGDICYYIKKKFKKVPKLCIEEILEKLGC-OH
modifications: disulfide 1-34, 20-44
As for B6, the Kd was 0.38 nM.

B7: C64 (designed binder)
chain: Ac-CEYDEEFFLGLKRLRGGDICYYIKKKFKKVPDLCIEEILKKLGC-OH
modifications: disulfide 1-34, 20-44
Turning to B7, the Kd came to 3.8 nM. This Kd lies about 10-fold higher than the previous one.

B8: C57 (designed binder)
chain: Ac-CEYDEEFFTALKRLRGGDICYYIKKKFKKVPKLCIEEILDKLGC-OH
modifications: disulfide 1-34, 20-44
B8 displayed a Kd of 0.29 nM.

B9: C65 (designed binder)
chain: Ac-CEYDEEFFTGLKRLRGGDICYYIKKKFKKVPELCIEEILKKLGC-OH
modifications: disulfide 1-34, 20-44
Molecule B9 gave a Kd of 2.21 nM.

B10: C78 (designed binder)
chain: Ac-CEYDEEFFLALKRLRGGDICYYIKKKFKKVPKLCIEEILDKLGC-OH
modifications: disulfide 1-34, 20-44
Molecule B10 returned a Kd of 0.49 nM. Compared with the last molecule, the Kd is about 4.5-fold lower.

B11: C77 (designed binder)
chain: Ac-CEYDEEFFLALKRLRGGDICYYIKKKFKKVPKLCIEEILEKLGC-OH
modifications: disulfide 1-34, 20-44
B11 gave a dissociation constant Kd of 0.58 nM.

B12: C58 (designed binder)
chain: Ac-CEYDEEFFLGLKRLRGGDICYYIKKKFKKVPKLCIEEILDKLGC-OH
modifications: disulfide 1-34, 20-44
Consider B12, for which the affinity, expressed as Kd, was 1.81 nM.

B13: C67 (designed binder)
chain: Ac-CEYDEEFFLGLKRLRGGDICYYIKKKFKKVPELCIEEILKKLGC-OH
modifications: disulfide 1-34, 20-44
B13: binding was characterised by a dissociation constant (Kd) of 2.64 nM.

B14: C76 (designed binder)
chain: Ac-CEYDEEFFKALKRLRGGDICYYIKKKFKKVPKLCIEEILEKLGC-OH
modifications: disulfide 1-34, 20-44
In the case of B14, the Kd was 0.52 nM.

B15: C52 (designed binder)
chain: Ac-CEYDEEFFTDLKRLRGGDICYYIKKKFKKVPKLCIEEILDKLGC-OH
modifications: disulfide 1-34, 20-44
The molecule B15 returned a Kd of 5.24 nM.

B16: C60 (designed binder)
chain: Ac-CEYDEEFFLGLKRLRGGDICYYIKKKFKKVPDLCIEEILEKLGC-OH
modifications: disulfide 1-34, 20-44
For B16, binding was characterised by a dissociation constant (Kd) of 3.17 nM.

B17: C63 (designed binder)
chain: Ac-CEYDEEFFLGLKRLRGGDICYYIKKKFKKVPKLCIEEILKKLGC-OH
modifications: disulfide 1-34, 20-44
Take B17: the Kd is 1.97 nM.

B18: C66 (designed binder)
chain: Ac-CEYDEEFFTGLKRLRGGDICYYIKKKFKKVPELCIEEILEKLGC-OH
modifications: disulfide 1-34, 20-44
Consider B18, for which the Kd was determined as 2.63 nM. The Kd values of the last two molecules are within 1.5-fold of each other.

B19: C80 (designed binder)
chain: Ac-CEYDEEFFKGLKRLRGGDICYYIKKKFKKVPKLCIEEILDKLGC-OH
modifications: disulfide 1-34, 20-44
B19 displayed a Kd of 2.7 nM.

B20: C71 (designed binder)
chain: Ac-CEYDEQFFTGLKRLRGGDICYYIKKKFKKVPKLCIEEILDKLGC-OH
modifications: disulfide 1-34, 20-44
For the molecule B20, the affinity, expressed as Kd, was 2.85 nM.

B21: C70 (designed binder)
chain: Ac-CEYDEKFFTGLKRLRGGDICYYIKKKFKKVPKLCIEEILDKLGC-OH
modifications: disulfide 1-34, 20-44
Regarding B21, the Kd was 2.2 nM.

B22: C69 (designed binder)
chain: Ac-CEYDEEFFKGLKRLRGGDICYYIKKKFKKVPKLCIEEILEKLGC-OH
modifications: disulfide 1-34, 20-44
B22 yielded a Kd of 1.86 nM.

B23: C55 (designed binder)
chain: Ac-CEYDEEFFTTLKRLRGGDICYYIKKKFKKVPKLCIEEILDKLGC-OH
modifications: disulfide 1-34, 20-44
B23 came in with a dissociation constant (Kd) of 3.39 nM. This Kd lies about 1.8-fold higher than the previous one.

B24: C61 (designed binder)
chain: Ac-CEYDEEFFLGLKRLRGGDICYYIKKKFKKVPKLCIEEILEKLGC-OH
modifications: disulfide 1-34, 20-44
Take B24: the affinity, expressed as Kd, was 1.79 nM.

B25: C171 (designed binder)
chain: {Biotin-PEG4″}-CEYDEEFFTALA[Cit]LRGGDICEYIQAKFQYLPGLCIEEILDNLGCS-OH
modifications: disulfide 1-34, 20-44
With B25, the Kd was 2.2 nM.

B26: C172 (designed binder)
chain: {Biotin-PEG4″}-CEYDEEFFTALA[Cit]LRGDDICSYIQAKFQYLPGLCIEEILDNLGCS-OH
modifications: disulfide 1-34, 20-44
The molecule B26 displayed a Kd of 1.8 nM. This Kd and that of the molecule before are within 1.5-fold of each other.

B27: C176 (designed binder)
chain: {Biotin-PEG4″}-CDYDEEFFTALA[Cit]LRGGDICEYIQAKFQYLPGLCIEEILDNLGCS-OH
modifications: disulfide 1-34, 20-44
For the molecule B27, the affinity, expressed as Kd, was 1.3 nM.

B28: C163 (designed binder)
chain: {Biotin-PEG4″}-CEYDEEFFTALA[Cit]LRGGDICYYIQAKFQYLPGLCIEEILDNLGCS-OH
modifications: disulfide 1-34, 20-44
As to B28, the Kd is 1.9 nM. The Kd values of the last two molecules are within 1.5-fold of each other.

B29: C175 (designed binder)
chain: {Biotin-PEG4″}-CEYDEEFFTALA[Cit]LRGGDICSYIQAKFQYLPGLCIEEILDNLGCS-OH
modifications: disulfide 1-34, 20-44
In turn, B29 yielded a Kd of 2.3 nM.

B30: C164 (designed binder)
chain: {Biotin-PEG4″}-CEYDEEFFTALARLRGGDICYYIQA[hydroxy‑norleucine]FQYLPGLCIEEILDNLGCS-OH
modifications: disulfide 1-34, 20-44
For B30, the Kd was 5 nM. Compared with the last molecule, the Kd is about 2.2-fold higher.
